Data published in patent US20230235013A1 (MABSOLVE, published 2023).
Substitutions are numbered along the chain they refer to. Numbers in names are those of the source.

T1: mouse FcRn (Sino Biological Cat. No. CT029-M08H) (mouse, UniProt Q61559 22-297; P01887 21-119)
T1 construct: Bought protein, captured on an anti-histidine chip
T1 sequence (looked up): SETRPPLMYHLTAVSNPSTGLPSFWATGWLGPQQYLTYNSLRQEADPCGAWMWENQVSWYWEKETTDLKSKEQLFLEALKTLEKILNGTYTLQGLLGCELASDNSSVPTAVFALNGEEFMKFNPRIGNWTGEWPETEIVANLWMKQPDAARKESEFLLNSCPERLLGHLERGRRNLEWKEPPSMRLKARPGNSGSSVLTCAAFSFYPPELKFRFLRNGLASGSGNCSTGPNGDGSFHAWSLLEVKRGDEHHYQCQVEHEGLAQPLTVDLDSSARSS
T1 sequence (b2m, looked up): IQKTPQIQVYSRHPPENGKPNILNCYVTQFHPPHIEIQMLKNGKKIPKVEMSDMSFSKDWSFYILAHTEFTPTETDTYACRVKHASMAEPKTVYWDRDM

B1: anti-CD20 (rituximab) human IgG1 L234Q/L235A/G236R (antibody)
heavy: not shown
light: QIVLSQSPAILSASPGEKVTMTCRASSSVSYIHWFQQKPGSSPKPWIYATSNLASGVPVRFSGSGSGTSYSLTISRVEAEDAATYYCQQWTSNPPTFGGGTKLEIKRTVAAPSVFIFPPSDEQLKSGTASVVCLLNNFYPREAKVQWKVDNALQSGNSQESVTEQDSKDSTYSLSSTLTLSKADYEKHKVYACEVTHQGLSSPVTKSFNRGEC
notes: EU numbering; also called 2-27; copies: 2 + 2
B2: anti-CD20 (rituximab) human IgG1 L234R/L235R/G236R (antibody)
heavy: QVQLQQPGAELVKPGASVKMSCKASGYTFTSYNMHWVKQTPGRGLEWIGAIYPGNGDTSYNQKFKGKATLTADKSSSTAYMQLSSLTSEDSAVYYCARSTYYGGDWYFNVWGAGTTVTVSSASTKGPSVFPLAPSSKSTSGGTAALGCLVKDYFPEPVTVSWNSGALTSGVHTFPAVLQSSGLYSLSSVVTVPSSSLGTQTYICNVNHKPSNTKVDKKVEPKSCDKTHTCPPCPAPERRRGPSVFLFPPKPKDTLMISRTPEVTCVVVDVSHEDPEVKFNWYVDGVEVHNAKTKPREEQYNSTYRVVSVLTVLHQDWLNGKEYKCKVSNKALPAPIEKTISKAKGQPREPQVYTLPPSRDELTKNQVSLTCLVKGFYPSDIAVEWESNGQPENNYKTTPPVLDSDGSFFLYSKLTVDKSRWQQGNVFSCSVMHEALHNHYTQKSLSLSPGK
light: B1 light
notes: EU numbering; also called 2-43; copies: 2 + 2
B3: anti-CD20 (rituximab) human IgG1 G236R (antibody)
heavy: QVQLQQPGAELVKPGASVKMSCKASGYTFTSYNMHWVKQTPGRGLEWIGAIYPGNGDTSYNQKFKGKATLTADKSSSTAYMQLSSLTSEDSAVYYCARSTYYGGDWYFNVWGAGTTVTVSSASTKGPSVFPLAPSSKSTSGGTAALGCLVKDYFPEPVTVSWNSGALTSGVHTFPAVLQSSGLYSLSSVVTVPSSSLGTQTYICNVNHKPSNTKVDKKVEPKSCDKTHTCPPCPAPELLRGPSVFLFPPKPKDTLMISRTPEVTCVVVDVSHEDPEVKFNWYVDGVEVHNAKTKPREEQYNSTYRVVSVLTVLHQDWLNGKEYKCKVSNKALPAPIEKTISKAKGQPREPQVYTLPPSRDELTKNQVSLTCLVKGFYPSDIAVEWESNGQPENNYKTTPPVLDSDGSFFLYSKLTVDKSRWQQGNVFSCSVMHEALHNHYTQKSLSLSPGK
light: B1 light
notes: EU numbering; also called 2-81; copies: 2 + 2
B4: anti-CD20 (rituximab) human IgG1 G236R/L328R (antibody)
heavy: not shown
light: B1 light
notes: EU numbering; also called 2-68; copies: 2 + 2
B5: anti-CD20 (rituximab) human IgG1 L234D/L235S/G236R (antibody)
heavy: B2 heavy with R238D, R239S
light: B1 light
notes: EU numbering; also called 2-10; 1-29; copies: 2 + 2
B6: anti-CD20 (rituximab) human IgG1 L235G/G236R (antibody)
heavy: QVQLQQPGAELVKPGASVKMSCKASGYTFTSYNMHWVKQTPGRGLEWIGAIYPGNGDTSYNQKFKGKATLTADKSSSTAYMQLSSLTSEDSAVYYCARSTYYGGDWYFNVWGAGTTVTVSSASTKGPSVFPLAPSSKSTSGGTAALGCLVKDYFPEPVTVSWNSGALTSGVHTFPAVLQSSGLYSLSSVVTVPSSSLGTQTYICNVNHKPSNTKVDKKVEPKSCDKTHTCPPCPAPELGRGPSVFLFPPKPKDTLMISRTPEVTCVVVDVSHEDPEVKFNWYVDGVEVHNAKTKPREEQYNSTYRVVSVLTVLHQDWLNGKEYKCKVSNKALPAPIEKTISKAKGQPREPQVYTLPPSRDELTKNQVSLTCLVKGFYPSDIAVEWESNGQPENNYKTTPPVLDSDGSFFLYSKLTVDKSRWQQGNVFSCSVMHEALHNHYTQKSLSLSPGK
light: B1 light
notes: EU numbering; also called 2-83; copies: 2 + 2
B7: anti-CD20 (rituximab) human IgG1 L235A/G236R (antibody)
heavy: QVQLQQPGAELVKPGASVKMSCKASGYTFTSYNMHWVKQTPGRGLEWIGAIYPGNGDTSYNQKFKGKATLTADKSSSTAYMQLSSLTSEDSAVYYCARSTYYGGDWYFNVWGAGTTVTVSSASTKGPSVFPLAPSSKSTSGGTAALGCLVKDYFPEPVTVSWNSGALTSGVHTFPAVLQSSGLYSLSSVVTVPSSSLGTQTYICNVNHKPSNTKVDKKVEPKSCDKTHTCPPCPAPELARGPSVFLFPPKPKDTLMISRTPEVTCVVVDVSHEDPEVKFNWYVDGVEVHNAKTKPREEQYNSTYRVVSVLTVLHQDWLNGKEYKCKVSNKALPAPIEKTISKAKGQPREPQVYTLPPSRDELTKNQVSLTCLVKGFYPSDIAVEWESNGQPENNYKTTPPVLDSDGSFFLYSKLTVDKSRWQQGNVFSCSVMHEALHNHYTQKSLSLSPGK
light: B1 light
notes: EU numbering; also called 2-79; copies: 2 + 2
B8: anti-CD20 (rituximab) human IgG1 L234Q/L235D/G236R (antibody)
heavy: B2 heavy with R238Q, R239D
light: B1 light
notes: EU numbering; also called 2-28; copies: 2 + 2
B9: anti-CD20 (rituximab) human IgG1 L234Q/L235R/G236R (antibody)
heavy: B2 heavy with R238Q
light: B1 light
notes: EU numbering; also called 2-32; copies: 2 + 2
B10: anti-CD20 (rituximab) human IgG1 L234Q/L235S, sample 2-82 (antibody)
heavy: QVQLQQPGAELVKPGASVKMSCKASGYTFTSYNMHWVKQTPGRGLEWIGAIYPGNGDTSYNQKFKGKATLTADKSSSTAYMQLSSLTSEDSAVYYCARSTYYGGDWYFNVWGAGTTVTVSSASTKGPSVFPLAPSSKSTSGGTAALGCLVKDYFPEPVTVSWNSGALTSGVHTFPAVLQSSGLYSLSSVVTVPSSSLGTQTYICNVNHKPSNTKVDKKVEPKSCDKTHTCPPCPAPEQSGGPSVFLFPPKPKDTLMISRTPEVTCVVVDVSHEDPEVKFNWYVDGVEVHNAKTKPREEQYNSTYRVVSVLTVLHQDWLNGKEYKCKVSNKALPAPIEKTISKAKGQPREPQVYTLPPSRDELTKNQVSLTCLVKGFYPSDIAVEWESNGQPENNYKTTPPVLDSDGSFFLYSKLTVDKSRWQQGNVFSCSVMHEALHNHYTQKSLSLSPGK
light: B1 light
notes: EU numbering; copies: 2 + 2
B11: anti-CD20 (rituximab) human IgG1 L235S/G236R (antibody)
heavy: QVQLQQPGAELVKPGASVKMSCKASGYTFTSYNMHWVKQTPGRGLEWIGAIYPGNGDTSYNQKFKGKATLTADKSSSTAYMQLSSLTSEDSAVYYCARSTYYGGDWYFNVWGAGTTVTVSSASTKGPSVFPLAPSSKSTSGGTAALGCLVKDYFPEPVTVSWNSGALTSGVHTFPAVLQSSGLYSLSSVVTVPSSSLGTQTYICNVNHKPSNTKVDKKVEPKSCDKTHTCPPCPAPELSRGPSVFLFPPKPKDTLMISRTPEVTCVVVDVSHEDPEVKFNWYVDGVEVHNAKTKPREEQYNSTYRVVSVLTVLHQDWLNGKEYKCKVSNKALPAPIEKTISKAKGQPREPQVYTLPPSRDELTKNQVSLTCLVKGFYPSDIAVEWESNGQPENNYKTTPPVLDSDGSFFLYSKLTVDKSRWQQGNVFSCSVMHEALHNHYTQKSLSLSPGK
light: B1 light
notes: EU numbering; also called 2-80; copies: 2 + 2
B12: anti-CD20 (rituximab variable regions) mouse IgG2a L234Q/L235S/G236R (antibody)
heavy: QVQLQQPGAELVKPGASVKMSCKASGYTFTSYNMHWVKQTPGRGLEWIGAIYPGNGDTSYNQKFKGKATLTADKSSSTAYMQLSSLTSEDSAVYYCARSTYYGGDWYFNVWGAGTTVTVSSAKTTAPSVYPLAPVCGDTTGSSVTLGCLVKGYFPEPVTLTWNSGSLSSGVHTFPAVLQSDLYTLSSSVTVTSSTWPSQSITCNVAHPASSTKVDKKIEPRGPTIKPCPPCKCPAPNQSRGPSVFIFPPKIKDVLMISLSPIVTCVVVDVSEDDPDVQISWFVNNVEVHTAQTQTHREDYNSTLRVVSALPIQHQDWMSGKEFKCKVNNKDLPAPIERTISKPKGSVRAPQVYVLPPPEEEMTKKQVTLTCMVTDFMPEDIYVEWTNNGKTELNYKNTEPVLDSDGSYFMYSKLRVEKKNWVERNSYSCSVVHEGLHNHHTTKSFSRTPGK
light: QIVLSQSPAILSASPGEKVTMTCRASSSVSYIHWFQQKPGSSPKPWIYATSNLASGVPVRFSGSGSGTSYSLTISRVEAEDAATYYCQQWTSNPPTFGGGTKLEIKRADAAPTVSIFPPSSEQLTSGGASVVCFLNNFYPKDINVKWKIDGSERQNGVLNSWTDQDSKDSTYSMSSTLTLTKDEYERHNSYTCEATHKTSTSPIVKSFNRNEC
notes: copies: 2 + 2
B13: anti-CD52 (alemtuzumab) human IgG1 L234G/L235S/G236R (antibody)
heavy: QVQLQESGPGLVRPSQTLSLTCTVSGFTFTDFYMNWVRQPPGRGLEWIGFIRDKAKGYTTEYNPSVKGRVTMLVDTSKNQFSLRLSSVTAADTAVYYCAREGHTAAPFDYWGQGSLVTVSSASTKGPSVFPLAPSSKSTSGGTAALGCLVKDYFPEPVTVSWNSGALTSGVHTFPAVLQSSGLYSLSSVVTVPSSSLGTQTYICNVNHKPSNTKVDKKVEPKSCDKTHTCPPCPAPEGSRGPSVFLFPPKPKDTLMISRTPEVTCVVVDVSHEDPEVKFNWYVDGVEVHNAKTKPREEQYNSTYRVVSVLTVLHQDWLNGKEYKCKVSNKALPAPIEKTISKAKGQPREPQVYTLPPSRDELTKNQVSLTCLVKGFYPSDIAVEWESNGQPENNYKTTPPVLDSDGSFFLYSKLTVDKSRWQQGNVFSCSVMHEALHNHYTQKSLSLSPGK
light: not shown
notes: EU numbering; also called 4-19; copies: 2 + 2
B14: anti-CD52 (alemtuzumab) human IgG1 L234S/L235V/G236R (antibody)
heavy: B13 heavy with G238S, S239V
light: not shown
notes: EU numbering; also called 4-53; copies: 2 + 2
B15: anti-CD52 (alemtuzumab) human IgG1 L234T/L235Q/G236R (antibody)
heavy: B13 heavy with G238T, S239Q
light: not shown
notes: EU numbering; also called 4-60; copies: 2 + 2
B16: anti-CD52 (alemtuzumab) human IgG1 N297Q (aglycosyl) (antibody)
heavy: not shown
light: not shown
notes: EU numbering; also called 4-67; copies: 2 + 2
B17: anti-CD52 (alemtuzumab) human IgG1 L234S/L235T/G236R (antibody)
heavy: B13 heavy with G238S, S239T
light: not shown
notes: EU numbering; also called 4-52; copies: 2 + 2

The binders below were run against T2, human FcRn (R&D Systems Cat. No. 8639-Fc) (human, UniProt P55899 24-297; P61769 21-119) (assay: SPR, FcRn captured; Mean).

Corrected and normalised response (% of wild-type reference)	Binder
93.5 % of wild-type reference	B1
108 % of wild-type reference	B2

The binders below were run against T2, human FcRn (R&D Systems Cat. No. …) (assay: SPR, FcRn captured; Expt 1).

Corrected and normalised response (% of wild-type reference)	Binder
94.5 % of wild-type reference	B1
106 % of wild-type reference	B2

Each binder was assayed against T2, human FcRn (R&D Systems Cat. No. …) (assay: SPR, FcRn captured; Expt 2).

Corrected and normalised response (% of wild-type reference)	Binder
93.4 % of wild-type reference	B1
108 % of wild-type reference	B2

Each binder was assayed against T2, human FcRn (R&D Systems Cat. No. …) (assay: SPR, FcRn captured; Expt 3).

Corrected and normalised response (% of wild-type reference)	Binder
92.8 % of wild-type reference	B1
108 % of wild-type reference	B2

The binders below were run against T2, human FcRn (R&D Systems Cat. No. …) (assay: SPR, FcRn captured via anti-His, pH 6.0;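 also: SPR binding signal relative to the reference cell, corrected by subtracting the response of a blank sample of running buffer alone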).

Corrected response (RU)	Binder
570	B3
513	B1
567	B4
570	B2
507	B5
547	B6
540	B7
490	B8
533	B9
509	B10
530	B11

Each binder was assayed against T3, cynomolgus monkey FcRn (Sino Biological Cat. No. CT031-C08H) (cynomolgus monkey, UniProt Q8SPV9 24-297; Q8SPW0 21-119) (assay: SPR, FcRn captured via anti-His, pH 6.0;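 also: SPR binding signal relative to the reference cell, corrected by subtracting the response of a blank sample of running buffer alone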).
T3 construct: Bought protein, captured on an anti-histidine chip; also called cynomolgus FcRn

Corrected response (RU)	Binder
1290	B3
1220	B1
1290	B4
1300	B2
1200	B5
1250	B6
1240	B7
1160	B8
1240	B9
1170	B10
1220	B11

These binders were tested against T1, mouse FcRn (Sino Biological Cat. No. …) (assay: SPR, FcRn captured via anti-His, pH 6.0;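 also: SPR binding signal relative to the reference cell, corrected by subtracting the response of a blank sample of running buffer alone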).

Corrected response (RU)	Binder
173	B3
154	B1
206	B4
181	B2
145	B5
146	B6
168	B7
170	B8
180	B9
142	B10
189	B11

These binders were tested against T4, Human C1q (Sigma Cat. No. 20476), HRP-labelled (human, UniProt P02745 23-245; P02746 28-253; P02747 29-245) (assay: ELISA, antibody coated, HRP-C1q; Expt 1, buffer alone 0.061).
T4 construct: Coupled to horse-radish peroxidase with Lightning-Link kit; also called HRP-labelled C1q

Mean Absorbance	Binder
0.048 absorbance (450 nm)	B1
0.029 absorbance (450 nm)	B2

The binders below were run against T4, Human C1q (Sigma Cat. No. 20476), … (assay: ELISA, antibody coated, HRP-C1q; Expt 1, buffer alone 0.053).

Mean Absorbance	Binder
1.45 absorbance (450 nm)	B12
0.053 absorbance (450 nm)	B13
0.057 absorbance (450 nm)	B14
0.056 absorbance (450 nm)	B15
0.051 absorbance (450 nm)	B16
0.052 absorbance (450 nm)	B17

These binders were tested against T4, Human C1q (Sigma Cat. No. 20476), … (assay: ELISA, antibody coated, HRP-C1q; Expt 2, buffer alone 0.051).

Mean Absorbance	Binder
0.953 absorbance (450 nm)	B12
0.056 absorbance (450 nm)	B13
0.059 absorbance (450 nm)	B14
0.052 absorbance (450 nm)	B15
0.044 absorbance (450 nm)	B16
0.053 absorbance (450 nm)	B17
